± gives the uncertainty stated by the source.
Test: abundance fitness (aPCA) (normalised: wild type 0, dead -1); higher = more abundant; growth selection in yeast, the domain comes from the species named
Settings: Homo sapiens

| Substance | abundance fitness |
| --- | --- |
| SAFB-like transcription modulator L52W, Q9NWH9 | -1.15 ± 0.14 |
| SAFB-like transcription modulator L52Y, Q9NWH9 | -0.651 ± 0.17 |
| SAFB-like transcription modulator L68A, Q9NWH9 | 0.219 ± 0.15 |
| SAFB-like transcription modulator L68C, Q9NWH9 | -0.092 ± 0.097 |
| SAFB-like transcription modulator L68F, Q9NWH9 | -0.164 ± 0.09 |
| SAFB-like transcription modulator L68G, Q9NWH9 | -0.165 ± 0.086 |
| SAFB-like transcription modulator L68H, Q9NWH9 | 0.053 ± 0.29 |
| SAFB-like transcription modulator L68I, Q9NWH9 | 0.295 ± 0.089 |
| SAFB-like transcription modulator L68M, Q9NWH9 | -0.188 ± 0.061 |
| SAFB-like transcription modulator L68P, Q9NWH9 | 0.022 ± 0.062 |
| SAFB-like transcription modulator L68Q, Q9NWH9 | -0.14 ± 0.075 |
| SAFB-like transcription modulator L68R, Q9NWH9 | -0.165 ± 0.067 |
| SAFB-like transcription modulator L68S, Q9NWH9 | -0.16 ± 0.063 |
| SAFB-like transcription modulator L68T, Q9NWH9 | -0.135 ± 0.065 |
| SAFB-like transcription modulator L68V, Q9NWH9 | -0.075 ± 0.063 |
| SAFB-like transcription modulator L68W, Q9NWH9 | -0.181 ± 0.052 |
| SAFB-like transcription modulator L68Y, Q9NWH9 | -0.763 ± 0.31 |
| SAFB-like transcription modulator N38A, Q9NWH9 | -0.296 ± 0.063 |
| SAFB-like transcription modulator N38D, Q9NWH9 | -0.222 ± 0.086 |
| SAFB-like transcription modulator N38E, Q9NWH9 | -0.153 ± 0.034 |
| SAFB-like transcription modulator N38F, Q9NWH9 | -0.24 ± 0.083 |
| SAFB-like transcription modulator N38G, Q9NWH9 | -0.002 ± 0.047 |
| SAFB-like transcription modulator N38H, Q9NWH9 | -0.492 ± 0.2 |
| SAFB-like transcription modulator N38K, Q9NWH9 | -0.092 ± 0.047 |
| SAFB-like transcription modulator N38L, Q9NWH9 | -0.247 ± 0.05 |

| Substance | abundance fitness |
| --- | --- |
| SAFB-like transcription modulator N38M, Q9NWH9 | -0.192 ± 0.057 |
| SAFB-like transcription modulator N38P, Q9NWH9 | -1.06 ± 0.15 |
| SAFB-like transcription modulator N38Q, Q9NWH9 | -0.04 ± 0.046 |
| SAFB-like transcription modulator N38R, Q9NWH9 | -0.141 ± 0.044 |
| SAFB-like transcription modulator N38S, Q9NWH9 | -0.105 ± 0.048 |
| SAFB-like transcription modulator N38T, Q9NWH9 | -0.233 ± 0.073 |
| SAFB-like transcription modulator N38V, Q9NWH9 | -0.688 ± 0.052 |
| SAFB-like transcription modulator N38W, Q9NWH9 | -0.368 ± 0.037 |
| SAFB-like transcription modulator N38Y, Q9NWH9 | -0.455 ± 0.11 |
| SAFB-like transcription modulator N65A, Q9NWH9 | -0.236 ± 0.065 |
| SAFB-like transcription modulator N65C, Q9NWH9 | -0.126 ± 0.074 |
| SAFB-like transcription modulator N65D, Q9NWH9 | -0.186 ± 0.082 |
| SAFB-like transcription modulator N65E, Q9NWH9 | -0.165 ± 0.069 |
| SAFB-like transcription modulator N65F, Q9NWH9 | -0.101 ± 0.065 |
| SAFB-like transcription modulator N65G, Q9NWH9 | -0.365 ± 0.052 |
| SAFB-like transcription modulator N65H, Q9NWH9 | -0.166 ± 0.084 |
| SAFB-like transcription modulator N65K, Q9NWH9 | -0.103 ± 0.038 |
| SAFB-like transcription modulator N65L, Q9NWH9 | -0.206 ± 0.035 |
| SAFB-like transcription modulator N65M, Q9NWH9 | -0.135 ± 0.055 |
| SAFB-like transcription modulator N65P, Q9NWH9 | -0.575 ± 0.036 |
| SAFB-like transcription modulator N65Q, Q9NWH9 | -0.176 ± 0.076 |
| SAFB-like transcription modulator N65R, Q9NWH9 | -0.094 ± 0.045 |
| SAFB-like transcription modulator N65S, Q9NWH9 | -0.162 ± 0.04 |
| SAFB-like transcription modulator N65T, Q9NWH9 | -0.281 ± 0.059 |
| SAFB-like transcription modulator N65W, Q9NWH9 | -0.339 ± 0.071 |

| Substance | abundance fitness |
| --- | --- |
| SAFB-like transcription modulator N65Y, Q9NWH9 | -0.191 ± 0.065 |
| SAFB-like transcription modulator P63A, Q9NWH9 | -0.23 ± 0.053 |
| SAFB-like transcription modulator P63C, Q9NWH9 | -0.134 ± 0.04 |
| SAFB-like transcription modulator P63D, Q9NWH9 | -0.553 ± 0.064 |
| SAFB-like transcription modulator P63E, Q9NWH9 | -0.337 ± 0.058 |
| SAFB-like transcription modulator P63F, Q9NWH9 | -0.257 ± 0.045 |
| SAFB-like transcription modulator P63H, Q9NWH9 | -0.397 ± 0.049 |
| SAFB-like transcription modulator P63I, Q9NWH9 | -0.165 ± 0.057 |
| SAFB-like transcription modulator P63K, Q9NWH9 | -0.354 ± 0.074 |
| SAFB-like transcription modulator P63L, Q9NWH9 | -0.213 ± 0.038 |
| SAFB-like transcription modulator P63M, Q9NWH9 | -0.264 ± 0.068 |
| SAFB-like transcription modulator P63N, Q9NWH9 | -0.422 ± 0.045 |
| SAFB-like transcription modulator P63Q, Q9NWH9 | -0.48 ± 0.082 |
| SAFB-like transcription modulator P63R, Q9NWH9 | -0.478 ± 0.053 |
| SAFB-like transcription modulator P63S, Q9NWH9 | -0.17 ± 0.049 |
| SAFB-like transcription modulator P63T, Q9NWH9 | -0.053 ± 0.065 |
| SAFB-like transcription modulator P63V, Q9NWH9 | -0.09 ± 0.034 |
| SAFB-like transcription modulator P63W, Q9NWH9 | -0.245 ± 0.059 |
| SAFB-like transcription modulator P63Y, Q9NWH9 | -0.214 ± 0.051 |
| SAFB-like transcription modulator Q54A, Q9NWH9 | -0.167 ± 0.083 |
| SAFB-like transcription modulator Q54C, Q9NWH9 | -0.209 ± 0.087 |
| SAFB-like transcription modulator Q54F, Q9NWH9 | -0.068 ± 0.1 |
| SAFB-like transcription modulator Q54G, Q9NWH9 | -0.258 ± 0.069 |
| SAFB-like transcription modulator Q54K, Q9NWH9 | 0.057 ± 0.1 |

From the Human Domainome abundance scans (Beltran et al. 2025)
